Assay results: patent publication US20190127478A1 (published 2019)

Legend:
Test in all cases: Octet RED 96
[1] = biological target: FcRn
[2] = biological target: FcgRIIIaV
[3] = biological target: FcgRIa

B1: BCD-100 IgG1* (antibody)
heavy: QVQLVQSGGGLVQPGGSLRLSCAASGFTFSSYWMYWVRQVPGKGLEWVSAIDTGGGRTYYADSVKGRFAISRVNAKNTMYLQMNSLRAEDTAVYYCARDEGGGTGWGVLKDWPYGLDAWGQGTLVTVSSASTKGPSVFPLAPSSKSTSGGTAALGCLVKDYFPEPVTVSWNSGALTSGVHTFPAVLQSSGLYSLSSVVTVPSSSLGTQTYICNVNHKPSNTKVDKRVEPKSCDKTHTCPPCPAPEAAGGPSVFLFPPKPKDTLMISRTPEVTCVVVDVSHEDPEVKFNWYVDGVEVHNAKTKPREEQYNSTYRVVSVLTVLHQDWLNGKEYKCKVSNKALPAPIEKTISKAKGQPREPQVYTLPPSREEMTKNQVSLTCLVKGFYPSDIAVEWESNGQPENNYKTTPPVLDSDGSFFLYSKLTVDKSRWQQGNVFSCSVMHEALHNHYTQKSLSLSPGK
light: QPVLTQPLSVSVALGQTARITCGGNNIGSKNVHWYQQKPGQAPVLVIYRDSNRPSGIPERFSGSNSGNTATLTISRAQAGDEADYYCQVWDSSTAVFGTGTKLTVLQRTVAAPSVFIFPPSDEQLKSGTASVVCLLNNFYPREAKVQWKVDNALQSGNSQESVTEQDSKDSTYSLSSTLTLSKADYEKHKVYACEVTHQGLSSPVTKSFNRGEC
Kd [1]: 9.6 nM
Kd [2]: 740 nM
Kd [3]: 750 nM
